Measurements from patent US20100111995A1.

Molecular target: CCR5 expressed on the cell surface (CEM.NKR-CCR5 cells; stimulated CD4+ T cells; CEM 5.25.EGFP.luc.M7 cells) (human) (UniProt P51681)
Assay: cell-based or functional assay

RANTES (from UniProt P13501 24-91) (ligand)
Antibody concentrations inhibiting HIV, 50% inhibition: 5.8 ng/mL | Antibody concentrations inhibiting HIV, 70% inhibition: 14.7 ng/mL
